From patent publication US20200283478A1 (Genentech, published 2020) come the findings set out here.

The target of assay [1] is T1, proprotein convertase subtilisin/kexin type 9 (PCSK9) (human, UniProt Q8NBP7 31-692).
T1 construct: His-tagged full-length PCSK9 in TR-FRET and SPR, biotinylated in phage ELISA; secreted protein is autoprocessed (prodomain plus catalytic/CRD chain starting at S153); also called rec.PCSK9; His-PCSK9
Put plainly: phage spot ELISA.

In assay [2] the target is T2, His-tagged PCSK9Δhelix (human, UniProt Q8NBP7 31-152; Q8NBP7 168-692).
T2 construct: Human PCSK9 M1-Q692 with an engineered TEV site, cut by TEV protease; new N-terminus of the catalytic domain is S-A168; also called His-PCSK9Δhelix; not shown: His tag
T2 sequence (Q8NBP7 31-152, stated change not applied, chain 1 of 2): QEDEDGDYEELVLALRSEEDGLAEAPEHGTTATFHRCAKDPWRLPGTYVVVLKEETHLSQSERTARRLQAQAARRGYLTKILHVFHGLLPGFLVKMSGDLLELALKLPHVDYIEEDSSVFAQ
T2 sequence (Q8NBP7 other isoform, or with tags, fused parts or gaps mutant, chain 2 of 2): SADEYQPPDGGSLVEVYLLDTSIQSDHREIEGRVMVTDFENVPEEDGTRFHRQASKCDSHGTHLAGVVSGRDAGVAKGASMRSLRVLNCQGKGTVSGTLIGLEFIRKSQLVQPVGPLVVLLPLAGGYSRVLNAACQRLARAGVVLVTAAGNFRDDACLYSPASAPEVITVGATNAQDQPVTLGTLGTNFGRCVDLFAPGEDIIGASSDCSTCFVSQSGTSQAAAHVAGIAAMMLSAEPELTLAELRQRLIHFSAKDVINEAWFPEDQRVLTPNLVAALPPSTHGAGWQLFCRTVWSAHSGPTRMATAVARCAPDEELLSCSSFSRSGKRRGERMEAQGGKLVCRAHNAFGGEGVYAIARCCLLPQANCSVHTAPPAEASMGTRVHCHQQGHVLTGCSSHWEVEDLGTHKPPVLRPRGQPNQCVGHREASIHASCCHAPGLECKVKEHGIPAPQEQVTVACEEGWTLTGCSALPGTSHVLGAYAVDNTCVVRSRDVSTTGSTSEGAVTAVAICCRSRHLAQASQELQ
The assay is described as follows: TR-FRET competition (PCSK9Δhelix/Ab20 assay); competitor Ab20.

Assay [3] has as its target T3, His-tagged, full-length PCSK9 (human, UniProt Q8NBP7 31-692).
T3 construct: secreted PCSK9 is autocatalytically cleaved into prodomain and catalytic domain + CRD (from S153), which stay associated; also called His-PCSK9; proprotein convertase subtilisin/kexin type 9; not shown: His tag
Put plainly: TR-FRET competition (PCSK9/EGF(A) assay); competitor EGF(A)-Fc.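 Note: proximity signal from anti-His APC on PCSK9 paired with anti-Fc europium on the Fc ligand, read as normalized TR-FRET ratio across compound dilutions.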

The target of assay [4] is T4, PCSK9Δhelix (human, Chemically biotinylated in the phage ELISAs; the site is not given.).
T4 construct: construct M1-Q692 with engineered TEV site, cleaved by TEV; also called His-PCSK9Δhelix; open groove PCSK9Δhelix
T4 sequence (prodomain, as listed by the source mutant limits assumed, chain 1 of 2): as the sequence (Q8NBP7 31-152, stated change not applied, chain 1 of 2) above
T4 sequence (chain, as listed by the source mutant limits assumed, chain 2 of 2): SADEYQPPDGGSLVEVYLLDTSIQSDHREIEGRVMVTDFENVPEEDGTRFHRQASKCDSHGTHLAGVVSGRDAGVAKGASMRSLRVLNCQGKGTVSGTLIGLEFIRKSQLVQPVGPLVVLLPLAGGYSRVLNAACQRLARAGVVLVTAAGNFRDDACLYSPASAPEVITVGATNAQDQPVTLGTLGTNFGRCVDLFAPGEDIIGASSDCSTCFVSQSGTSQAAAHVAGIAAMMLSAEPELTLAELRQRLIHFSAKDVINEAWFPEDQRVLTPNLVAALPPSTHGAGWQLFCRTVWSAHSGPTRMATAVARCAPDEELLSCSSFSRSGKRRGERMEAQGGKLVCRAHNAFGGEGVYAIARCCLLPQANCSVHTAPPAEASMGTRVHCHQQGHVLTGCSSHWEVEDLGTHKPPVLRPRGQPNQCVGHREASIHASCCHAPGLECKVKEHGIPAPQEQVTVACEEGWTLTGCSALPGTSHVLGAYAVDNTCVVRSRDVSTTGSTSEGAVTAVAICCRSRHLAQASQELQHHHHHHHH
The assay is described as follows: phage spot ELISA.

Bridge positions count the residues as written; N and C are the ends. Ends that are not written are not given here. * marks the point of attachment. Fmoc = O=C(OCC1c2ccccc2-c2ccccc21)*

T1 sequence (Q8NBP7 other isoform, or with tags, fused parts or gaps limits assumed): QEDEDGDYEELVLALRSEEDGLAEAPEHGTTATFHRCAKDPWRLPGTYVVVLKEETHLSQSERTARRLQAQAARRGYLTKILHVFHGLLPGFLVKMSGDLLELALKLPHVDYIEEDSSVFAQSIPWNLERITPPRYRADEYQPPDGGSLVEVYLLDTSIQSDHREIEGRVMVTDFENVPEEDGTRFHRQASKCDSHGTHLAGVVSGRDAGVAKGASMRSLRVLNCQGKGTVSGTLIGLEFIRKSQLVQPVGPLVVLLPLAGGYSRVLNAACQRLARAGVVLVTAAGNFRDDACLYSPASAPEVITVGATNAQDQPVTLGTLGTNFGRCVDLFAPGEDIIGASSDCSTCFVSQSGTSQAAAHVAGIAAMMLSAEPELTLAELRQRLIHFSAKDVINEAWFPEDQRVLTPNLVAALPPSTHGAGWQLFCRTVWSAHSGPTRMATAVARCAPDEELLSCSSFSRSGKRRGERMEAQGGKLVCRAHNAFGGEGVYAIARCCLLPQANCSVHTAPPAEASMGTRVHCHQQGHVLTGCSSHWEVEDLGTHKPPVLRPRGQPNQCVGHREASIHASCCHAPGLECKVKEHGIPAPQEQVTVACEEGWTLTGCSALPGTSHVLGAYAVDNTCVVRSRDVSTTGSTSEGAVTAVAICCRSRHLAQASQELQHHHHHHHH
T3 sequence (Q8NBP7 31-692 limits assumed): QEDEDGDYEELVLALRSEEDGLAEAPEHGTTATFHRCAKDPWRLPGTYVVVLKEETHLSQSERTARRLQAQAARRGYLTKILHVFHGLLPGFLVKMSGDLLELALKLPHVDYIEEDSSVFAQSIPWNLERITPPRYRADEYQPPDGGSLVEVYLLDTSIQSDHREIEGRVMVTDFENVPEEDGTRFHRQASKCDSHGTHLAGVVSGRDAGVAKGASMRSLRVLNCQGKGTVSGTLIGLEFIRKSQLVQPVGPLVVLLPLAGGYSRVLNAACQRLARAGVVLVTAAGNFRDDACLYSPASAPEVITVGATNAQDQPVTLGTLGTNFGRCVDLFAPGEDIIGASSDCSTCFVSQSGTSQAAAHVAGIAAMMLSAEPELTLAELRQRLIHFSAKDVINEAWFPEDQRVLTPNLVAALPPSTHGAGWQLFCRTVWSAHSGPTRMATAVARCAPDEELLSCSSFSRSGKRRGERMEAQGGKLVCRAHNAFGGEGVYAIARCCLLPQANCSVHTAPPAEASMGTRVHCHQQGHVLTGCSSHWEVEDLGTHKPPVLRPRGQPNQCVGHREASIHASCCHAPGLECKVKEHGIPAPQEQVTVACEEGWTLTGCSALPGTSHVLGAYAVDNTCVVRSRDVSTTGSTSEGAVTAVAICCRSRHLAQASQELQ

In assay [1], SGVCSDHYIGGKEVRC [SEQ ID NO 378] returned an ELISA of 1.12 and a s/n of 6.19.

B1: Compound 88 (Ac-FCLWNLARIGSQCWF-NH2) (peptide)
peptide: Ac-FCLWNLARIGSQCWF-NH2
modifications: disulfide 2-13
SMILES: CC[C@H](C)[C@@H]1NC(=O)[C@H](CCCNC(=N)N)NC(=O)[C@H](C)NC(=O)[C@H](CC(C)C)NC(=O)[C@H](CC(N)=O)NC(=O)[C@H](Cc2c[nH]c3ccccc23)NC(=O)[C@H](CC(C)C)NC(=O)[C@@H](NC(=O)[C@H](Cc2ccccc2)NC(C)=O)CSSC[C@@H](C(=O)N[C@@H](Cc2c[nH]c3ccccc23)C(=O)N[C@@H](Cc2ccccc2)C(N)=O)NC(=O)[C@H](CCC(N)=O)NC(=O)[C@H](CO)NC(=O)CNC1=O
B1: the values for the IC50 in assay [2] and in assay [3] were 7.46 µM and 17.9 µM, respectively.
Consider SGGCVKYRGSVSCQESKT [SEQ ID NO 369], for which, in assay [1], the ELISA turned out to be 0.373 and the s/n turned out to be 3.32. In assay [4], this molecule displayed an ELISA of 0.378 and a s/n of 3.37.
On to SGMVYVDRGVRVFT [SEQ ID NO 368], for which the ELISA was determined as 0.893 in assay [1] and 1.01 in assay [4]. The s/n in assay [1] came to 8.5; in assay [4], 10.2.

B2: Compound 66 (WCLWNLKRIGSQCWF) (peptide)
peptide: H-WCLWNLKRIGSQCWF-OH
modifications: disulfide 2-13
SMILES: CC[C@H](C)[C@@H]1NC(=O)[C@H](CCCNC(=N)N)NC(=O)[C@H](CCCCN)NC(=O)[C@H](CC(C)C)NC(=O)[C@H](CC(N)=O)NC(=O)[C@H](Cc2c[nH]c3ccccc23)NC(=O)[C@H](CC(C)C)NC(=O)[C@@H](NC(=O)[C@@H](N)Cc2c[nH]c3ccccc23)CSSC[C@@H](C(=O)N[C@@H](Cc2c[nH]c3ccccc23)C(=O)N[C@@H](Cc2ccccc2)C(=O)O)NC(=O)[C@H](CCC(N)=O)NC(=O)[C@H](CO)NC(=O)CNC1=O
Regarding B2, the IC50 in assay [2] was 12 µM; in assay [3], 31.3 µM.
Turning to Ac-WCLWNLKRIGSQCWF (disulfide 2-13) [Compound 90 (Ac-WCLWNLKRIGSQCWF)], the figures for the IC50 in assay [2] and in assay [3] were 7.38 µM and 29.2 µM, respectively.

B3: Compound 39 (Ac-CWNLKRIGSQGCW-NH2) (peptide)
peptide: Ac-CWNLKRIGSQGCW-NH2
modifications: disulfide 1-12
SMILES: CC[C@H](C)[C@@H]1NC(=O)[C@H](CCCNC(=N)N)NC(=O)[C@H](CCCCN)NC(=O)[C@H](CC(C)C)NC(=O)[C@H](CC(N)=O)NC(=O)[C@H](Cc2c[nH]c3ccccc23)NC(=O)[C@@H](NC(C)=O)CSSC[C@@H](C(=O)N[C@@H](Cc2c[nH]c3ccccc23)C(N)=O)NC(=O)CNC(=O)[C@H](CCC(N)=O)NC(=O)[C@H](CO)NC(=O)CNC1=O
Consider B3, for which the figures for the IC50 in assay [2] and in assay [3] were 37.5 µM and over 50 µM, respectively.
In assay [1], SGACLNHFVSGNMIRC [SEQ ID NO 371] displayed an ELISA of 0.607 and a s/n of 5.19. In assay [4], this molecule returned an ELISA of 0.649 and a s/n of 5.55.

B4: Compound 87 (Ac-GCLWNLKRIGSQCWF-NH2) (peptide)
peptide: Ac-GCLWNLKRIGSQCWF-NH2
modifications: disulfide 2-13
SMILES: CC[C@H](C)[C@@H]1NC(=O)[C@H](CCCNC(=N)N)NC(=O)[C@H](CCCCN)NC(=O)[C@H](CC(C)C)NC(=O)[C@H](CC(N)=O)NC(=O)[C@H](Cc2c[nH]c3ccccc23)NC(=O)[C@H](CC(C)C)NC(=O)[C@@H](NC(=O)CNC(C)=O)CSSC[C@@H](C(=O)N[C@@H](Cc2c[nH]c3ccccc23)C(=O)N[C@@H](Cc2ccccc2)C(N)=O)NC(=O)[C@H](CCC(N)=O)NC(=O)[C@H](CO)NC(=O)CNC1=O
With B4, the IC50 in assay [2] is 9.53 µM; in assay [3] it was over 50 µM.
For the molecule SGDTRSQLSH [SEQ ID NO 376], in assay [1], the ELISA was determined as 2.57 and the s/n stood at 11.9. Further, in assay [4], the ELISA came out at 1.24 and the s/n worked out at 11.3.
Turning to SGTPEMPAML [SEQ ID NO 374], the ELISA in assay [1] was 3.01; in assay [4], 2.25. Moreover, the s/n turned out to be 5.74 in assay [1] and 8.06 in assay [4].
As for SGEHQFYSYRGVDVYR [SEQ ID NO 370], in assay [1], the ELISA amounted to 0.458 and the s/n worked out at 1.45. In assay [4], this molecule returned an ELISA of 0.461 and a s/n of 3.71.
In assay [1], SGPRTYLRGLVD [SEQ ID NO 366] yielded an ELISA of 0.355 and a s/n of 3.1. For the same molecule, in assay [4], the ELISA is 0.375 and the s/n was found to be 3.44.

B5: Compound 98 (Fmoc-GSG-CWNLKRIGSQGC-NH2) (peptide)
peptide: Fmoc-GSGCWNLKRIGSQGC-NH2
modifications: disulfide 4-15
SMILES: CC[C@H](C)[C@@H]1NC(=O)[C@H](CCCNC(=N)N)NC(=O)[C@H](CCCCN)NC(=O)[C@H](CC(C)C)NC(=O)[C@H](CC(N)=O)NC(=O)[C@H](Cc2c[nH]c3ccccc23)NC(=O)[C@@H](NC(=O)CNC(=O)[C@H](CO)NC(=O)CNC(=O)OCC2c3ccccc3-c3ccccc32)CSSC[C@@H](C(N)=O)NC(=O)CNC(=O)[C@H](CCC(N)=O)NC(=O)[C@H](CO)NC(=O)CNC1=O
For the molecule B5, the IC50 in assay [2] stood at 3.6 µM; in assay [3], 37.6 µM.
As to SGSYRGAWSVFGGSTD [SEQ ID NO 372], in assay [1], the ELISA came to 1.09 and the s/n was determined as 5.15. In addition, in assay [4], the ELISA was 1.04 and the s/n is 7.68.
Turning to SGLAPTVSDS [SEQ ID NO 375], the values for the ELISA in assay [1] and in assay [4] were 0.119 and 0.55, respectively. Besides, the s/n is 1.23 in assay [1] and 4.33 in assay [4].

B6: Compound 40 (Ac-GSG-CWNLKRIGSQGCW-NH2) (peptide)
peptide: Ac-GSGCWNLKRIGSQGCW-NH2
modifications: disulfide 4-15
SMILES: CC[C@H](C)[C@@H]1NC(=O)[C@H](CCCNC(=N)N)NC(=O)[C@H](CCCCN)NC(=O)[C@H](CC(C)C)NC(=O)[C@H](CC(N)=O)NC(=O)[C@H](Cc2c[nH]c3ccccc23)NC(=O)[C@@H](NC(=O)CNC(=O)[C@H](CO)NC(=O)CNC(C)=O)CSSC[C@@H](C(=O)N[C@@H](Cc2c[nH]c3ccccc23)C(N)=O)NC(=O)CNC(=O)[C@H](CCC(N)=O)NC(=O)[C@H](CO)NC(=O)CNC1=O
For B6, the results for the IC50 in assay [2] and in assay [3] were 2.41 µM and 5.96 µM, respectively.
In assay [1], SGCWTYLRGGCSVT [SEQ ID NO 373] showed an ELISA of 0.487 and a s/n of 4.39. In assay [4], the ELISA was 0.569 and the s/n amounted to 5.37.
In assay [1], SGNCWSSLRGICENLG [SEQ ID NO 367] showed an ELISA of 0.609 and a s/n of 1.47. In assay [4], this molecule yielded an ELISA of 0.601 and a s/n of 5.2.
